Common to all, as to type: cell-based
One assay has as its system BMS breast cancer cells. The experiment in a line: Tumor cell arrest during blood flow. The following applies: 3 μM scFv, human blood, collagen I matrix, shear rate 50 s^−1. As to the method: FIGS. 3A, 3B, 3C, 3D, 3E. scFv Bc-12 and Bc-15 inhibit αvβ3 mediated adhesive breast cancer cell functions. (A) Adhesion of BMS human breast cancer cells to fibrinogen (Fg), vitronectin (VN) or type I collagen (Col I) in the absence or presence of 3 μM Bc-12, Bc-15 or their RGE mutants Mut-12, Mut-15, compared to 200 μM GRGDSPK peptide (SEQ ID NO: 11). Protein coating concentrations: 10 μg/ml (VN, Col I) or 20 μg/ml (Fg). Adhesion time: 30 min at 37° C. (B) Effect of scFvs on haptotactic BMS cell migration toward a fibrinogen substrate (16 hrs at 37° C. in transwell chambers with or without 2 μM Bc-12, Bc-15 or their RGE mutants Mut-12 or Mut-15, compared to 200 μM GRGDSPK peptide) (SEQ ID NO: 11). (C) Effect of scFvs on breast cancer cell arrest during blood flow. Metastatic BMS cells, labeled with hydroethidine, were suspended in human blood (anticoagulated with 50 nM PPACK) and perfused over a collagen I matrix at a venous wall shear rate of 50 s^−1. Under these conditions, breast cancer cells arrest by αvβ3 mediated binding to adherent, thrombus forming platelets. Tumor cell adhesion was quantified by image acquisition at 30 predefined positions during blood flow. Left: representative images of platelet signal (thrombi, green fluorescence) and tumor cell signal (red fluorescence) at identical x,y positions. […]
Tumor cell arrest during bloodflow. Breast cancer cell arrest during blood flow and interaction with platelets was measured as described. […] Adhesive events and cell interactions were visualized and recorded by fluorescence video microscopy and quantified by image acquisition at 30 predefined positions followed by computerized image analysis (MetaMorph, Universal Imaging). Tumor cells were stained with hydroethidine (red fluorescence) (20 μg/ml, 30 min, 37° C.), washed, and mixed with blood containing 10 μM mepacrine (green fluorescence). Blood cells, tumor cells, and platelets acquired green fluorescence and were visualized at 488/515 nm (excitation/emission). Tumor cells were identified by their unique red fluorescence at 543/590 nm. […]

Assay [1] concerns BMS human breast cancer cells. The experiment in a line: Tumor cell adhesion under stationary conditions. The following applies: 3 μM scFv. As to the method:
(§1) FIGS. 3A, 3B, 3C, 3D, 3E. scFv Bc-12 and Bc-15 inhibit αvβ3 mediated adhesive breast cancer cell functions. (A) Adhesion of BMS human breast cancer cells to fibrinogen (Fg), vitronectin (VN) or type I collagen (Col I) in the absence or presence of 3 μM Bc-12, Bc-15 or their RGE mutants Mut-12, Mut-15, compared to 200 μM GRGDSPK peptide (SEQ ID NO: 11). Protein coating concentrations: 10 μg/ml (VN, Col I) or 20 μg/ml (Fg). Adhesion time: 30 min at 37° C. (B) Effect of scFvs on haptotactic BMS cell migration toward a fibrinogen substrate (16 hrs at 37° C. in transwell chambers with or without 2 μM Bc-12, Bc-15 or their RGE mutants Mut-12 or Mut-15, compared to 200 μM GRGDSPK peptide) (SEQ ID NO: 11). (C) Effect of scFvs on breast cancer cell arrest during blood flow. Metastatic BMS cells, labeled with hydroethidine, were suspended in human blood (anticoagulated with 50 nM PPACK) and perfused over a collagen I matrix at a venous wall shear rate of 50 s^−1. Under these conditions, breast cancer cells arrest by αvβ3 mediated binding to adherent, thrombus forming platelets. Tumor cell adhesion was quantified by image acquisition at 30 predefined positions during blood flow. Left: representative images of platelet signal (thrombi, green fluorescence) and tumor cell signal (red fluorescence) at identical x,y positions. Right: Number of arrested tumor cells in the presence of 3 μM non-function blocking anti αv scFv Bc-20 or function blocking anti αvβ3 scFvs Bc-12 or Bc-15. (D) scFv Bc-15 is internalized by human breast cancer cells and reduces cell proliferation. Left: confocal images of BMS cells incubated for 4 hrs with FITC-Bc-15 at 4° C. (binding) versus 37° C. (allowing internalization). Right: Phase contrast images of BMS cell cultures 4 days after seeding in the presence of 2 μM RGE containing scFv Mut-15, or RGD containing Bc-15. (E) Effect of scFv Bc-12 on the viability of matrix deprived BMS breast cancer cells in ultra-low-adhesion plates in the presence or absence of 3.7 μM scFv, or 14.36 μM camptothecin as apoptosis inducing control. Measurement of apoptosis was based on cytoplasmic histone-associated DNA fragments after 20 hrs.
Cell adhesion and migration. Tumor cell adhesion under stationary conditions was analyzed as detailed earlier (19). Adhesion buffer was Hanks balanced salt solution (HBSS) pH 7.4, 0.5% BSA, 1 mM MgCl2, 0.2 mM MnCl2. For inhibition, cells were incubated for 5 min at RT either with 3 μM scFv or 200 μM GRGDSPK (SEQ ID NO: 11) peptide, then plated in the presence of inhibitor and allowed to attach for 30 min at 37° C. Haptotactic tumor cell migration toward fibrinogen was analyzed in transwell chambers as detailed earlier. Rolli, M., et al., Proc. Natl. Acad. Sci. U.S.A 100: 9482-9487, 2003. […]

Assay [2] concerns BMS human breast cancer cells. The experiment in a line: Haptotactic tumor cell migration toward fibrinogen (transwell). The following applies: 2 μM scFv, 16 hrs at 37° C. The method, then:
as §1, with “(E) Effect of scFv Bc-12 on the viability of matrix deprived BMS breast cancer cells in ultra-low-adhesion plates in the presence or absence of 3.7 μM scFv, or 14.36 μM camptothecin as apoptosis inducing control. Measurement of apoptosis was based on cytoplasmic histone-associated DNA fragments after 20 hrs.” left out
Cell adhesion and migration. Tumor cell adhesion under stationary conditions was analyzed as detailed earlier (19). […] Haptotactic tumor cell migration toward fibrinogen was analyzed in transwell chambers as detailed earlier. […]

B1: Bc-12: patient derived human scFv antibody against activated αvβ3 with RGD motif in CDR-H3; cDNA ATCC PTA-6303 (protein)
scFv: MAQVQLVQSGAEVKKPGASVKVSCKASGYTFSNYGITWVRQAPGQGLEWMGWINNGNTHYAQKFQGRVTMTTDTSTSTAYMELRSLRSDDTAVYYCARDPRGDDEPYWGQGTLVTVSSGGGGSGGGGSGGGGSEIVLTQSPLSLPVTLGQPASISCRSSQNLVYSDGNTYLSWFQQRPGQSPRRLIYKVSNRDSGVPDRFSGSGSGTDFTLKISRVEAEDIGVYYCMQGTHWPPRTFGQGTKVEIKRGLGGLVDYKDDDDK
In the case of B1, the “breast cancer cell arrest during blood flow” value in the assay with BMS breast cancer cells is on record as “efficiently inhibited”. For the same molecule, in assay [1], the “adhesion to collagen type I” value was “no effect”; the attachment to vitronectin result is “inhibited by Bc-12 and Bc-15, but to a lesser degree”. Moreover, the “adhesion to immobilized fibrinogen” value in assay [1] (30 min at 37° C.) is “efficiently inhibited”. In addition, the fibrinogen directed migration entry in assay [2] is “inhibited BMS human breast cancer cell migration almost completely”.

B2: Mut-12: RGE containing mutant version of scFv Bc-12 (protein)
chain: MAQVQLVQSGAEVKKPGASVKVSCKASGYTFSNYGITWVRQAPGQGLEWMGWINNGNTHYAQKFQGRVTMTTDTSTSTAYMELRSLRSDDTAVYYCARDPRGEDEPYWGQGTLVTVSSGGGGSGGGGSGGGGSEIVLTQSPLSLPVTLGQPASISCRSSQNLVYSDGNTYLSWFQQRPGQSPRRLIYKVSNRDSGVPDRFSGSGSGTDFTLKISRVEAEDIGVYYCMQGTHWPPRTFGQGTKVEIKRGLGGLVDYKDDDDK
Take B2: in the assay on BMS breast cancer cells, the “breast cancer cell arrest during blood flow” value is given as “no effect”. In assay [2], the fibrinogen directed migration entry is “only a minor effect”.

For the origin of these results see US7271245B2, “Methods and compositions for inhibition of metastasis” (The Scripps Research Institute, priority 2004, dated 2007).
